Sequences and labels used below:
T1: human FcγRIIa type H (human, UniProt P12318 36-217)
T1 construct: Whole entry named for FcγRIIa allotype H131 (AAH20823.1); also called FcγRIIaH; FcγRIIa(H)
T1 sequence: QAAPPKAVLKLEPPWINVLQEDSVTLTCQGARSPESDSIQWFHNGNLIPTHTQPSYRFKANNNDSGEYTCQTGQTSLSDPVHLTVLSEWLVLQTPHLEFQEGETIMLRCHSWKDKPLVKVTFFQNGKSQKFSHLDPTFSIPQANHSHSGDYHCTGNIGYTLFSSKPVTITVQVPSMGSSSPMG

T2: human FcγRIIb (human, UniProt P31994 43-217)
T2 construct: also called FcγIIB
T2 sequence: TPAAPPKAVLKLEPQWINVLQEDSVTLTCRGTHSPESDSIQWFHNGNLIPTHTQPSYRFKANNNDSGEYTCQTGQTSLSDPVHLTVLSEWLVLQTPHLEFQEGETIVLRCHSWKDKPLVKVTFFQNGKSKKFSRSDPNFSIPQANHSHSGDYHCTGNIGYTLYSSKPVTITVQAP

T3: human FcγRIIa type R (human, UniProt P12318 36-217)
T3 construct: also called FcγRIIaR; FcγRIIa(R)
T3 chain: T1 sequence with H133R

T4: human FcγRIIa type H (human, UniProt P12318 36-217)
T4 construct: also called FcgRIIaH; FcγRIIa(H)
T4 sequence: T1 sequence

T5: human FcγRIIb (human, UniProt P31994 43-217, limits assumed)
T5 construct: also called FcgRIIb; FcγIIB
T5 sequence: T2 sequence

B1: IL6R-BP121/IL6R-L (antibody, human IgG1)
heavy: QVQLQESGPGLVKPSETLSLTCAVSGHSISHDHAWSWVRQPPGEGLEWIGFISYSGITNYNPSLQGRVTISRDNSKNTLYLQMNSLRAEDTAVYYCARSLARTTAMDYWGEGTLVTVSSASTKGPSVFPLAPSSKSTSGGTAALGCLVKDYFPEPVTVSWNSGALTSGVHTFPAVLQSSGLYSLSSVVTVPSSSLGTQTYICNVNHKPSNTKVDKKVEPKSCDKTHTCPPCPAPELLGGDSVFLFPPKPKDTLMISRTPEVTCVVVDVSHEDPEVKFNWYVDGVEVHNAKTKPREEQYNSTYRVVSVLTVLHQDWLNGKEYKCKVSNQALPAPIEKTISKAKGQPREPQVYTLPPSRDELTKNQVSLTCLVKGFYPSDIAVEWESNGQPENNYKTTPPVLDSDGSFFLYSKLTVDKSRWQQGNVFSCSVMHEALHNHYTQESLSLSP
light: DIQMTQSPSSLSASVGDRVTITCRASQDISSYLNWYQQKPGKAPKLLIYYTSRLHSGVPSRFSGSGSGTDFTFTISSLQPEDIATYYCQQGNTLPYTFGQGTKVEIK
notes: copies: 2 + 2
B2: IL6R-BF648/IL6R-L (antibody, human IgG1)
heavy: not shown
light: B1 light
notes: IL6R-B3 with P238D; copies: 2 + 2
B3: IL6R-G1d/IL6R-L (antibody, human IgG1)
heavy: not shown
light: B1 light
notes: Anti-human IL-6 receptor IgG1 with G1d constant region (C-terminal Gly and Lys removed); also called IgG1; copies: 2 + 2
B4: IL6R-BP912/IL6R-L (antibody, human IgG1)
heavy: B1 heavy with Q328K, A332R
light: B1 light
notes: copies: 2 + 2
B5: IL6R-BP213/IL6R-L (antibody, human IgG1)
heavy: B1 heavy with E235D, H270D, P273G, Q328K, A332R
light: B1 light
notes: The common L chain is IL6R-L; copies: 2 + 2
B6: IL6R-BP198/IL6R-L (antibody, human IgG1)
heavy: B1 heavy with E235D, L236Y, H270D, P273G, Q328A, A332K
light: B1 light
notes: as for B5
B7: IL6R-BP199/IL6R-L (antibody)
heavy: B1 heavy with E235D, Q328D, A332R
light: B1 light
notes: copies: 2 + 2
B8: IL6R-BP190/IL6R-L (antibody, human IgG1)
heavy: B1 heavy with G239D, H270D, P273G, Q328K, A332K
light: B1 light
notes: as for B5
B9: IL6R-BP191/IL6R-L (antibody, human IgG1)
heavy: B1 heavy with E235D, H270D, P273G, Q328A, A332K
light: B1 light
notes: as for B5
B10: IL6R-BP196/IL6R-L (antibody, human IgG1)
heavy: B1 heavy with L236Y, H270D, P273G, Q328A, A332K
light: B1 light
notes: as for B5
B11: IL6R-BP187/IL6R-L (antibody, human IgG1)
heavy: B1 heavy with L236Y, P273G, Q328A, A332K
light: B1 light
notes: as for B5
B12: IL6R-BP194/IL6R-L (antibody, human IgG1)
heavy: B1 heavy with E235D, L236Y, G239D, H270D, P273G, Q328A, A332K
light: B1 light
notes: as for B5
B13: IL6R-BP192/IL6R-L (antibody, human IgG1)
heavy: B1 heavy with E235D, H270D, P273G, Y298D, Q328K, A332K
light: B1 light
notes: as for B5
B14: IL6R-BP189/IL6R-L (antibody, human IgG1)
heavy: B1 heavy with G239D, H270D, P273G, Q328A, A332K
light: B1 light
notes: as for B5
B15: IL6R-BP197/IL6R-L (antibody)
heavy: B1 heavy with E235D, L236Y, G239D, H270D, P273G, Y298D, Q328D, A332K
light: B1 light
notes: copies: 2 + 2
B16: IL6R-BP195/IL6R-L (antibody, human IgG1)
heavy: B1 heavy with E235D, L236Y, G239D, H270D, P273G, Y298D, Q328A, A332K
light: B1 light
notes: as for B5
B17: IL6R-BP211/IL6R-L (antibody, human IgG1)
heavy: B1 heavy with E235D, H270D, P273G, Q328A, A332R
light: B1 light
notes: as for B5

Residue numbers refer to the chain shown, from its start. In names and notes the source's numbering stands.

One assay addresses T1, human FcγRIIa type H. Briefly: SPR (Biacore), FcγR over captured antibody; amount bound relative to IL6R-BF648/IL6R-L x100.
On to B1, for which the relative binding is 135 relative value (IL6R-BF648/IL6R-L = 100).
As to B2, the relative binding was 100 relative value (IL6R-BF648/IL6R-L = 100).
Still for that read-out and setting: in the case of B3 it was 1670 relative value (IL6R-BF648/IL6R-L = 100); in that of B4, 93 relative value (IL6R-BF648/IL6R-L = 100).

A further assay addresses T6, human FcγRIIIa type V (human, UniProt P08637 17-208, limits assumed).
T6 construct: also called FcγRIIIaV; FcγRIIIa(V)
Described as above.
T6 sequence (P08637 other isoform, or with tags, fused parts or gaps limits assumed): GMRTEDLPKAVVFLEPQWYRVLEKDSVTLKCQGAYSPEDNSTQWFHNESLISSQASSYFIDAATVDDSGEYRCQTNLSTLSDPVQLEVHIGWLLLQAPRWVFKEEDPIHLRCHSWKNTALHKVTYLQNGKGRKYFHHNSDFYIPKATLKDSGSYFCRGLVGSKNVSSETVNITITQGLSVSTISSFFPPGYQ
B1: the relative binding is 157 relative value (IL6R-BF648/IL6R-L = 100).
Still for that read-out and setting: the figure for B2 is 100 relative value (IL6R-BF648/IL6R-L = 100); for B3 it is 3350 relative value (IL6R-BF648/IL6R-L = 100).
Same read-out and setting: in the case of B4 it was 97 relative value (IL6R-BF648/IL6R-L = 100).

In the next assay the target is T7, human FcγRIa (human, UniProt P12314 16-292, limits assumed).
T7 construct: also called CD64
The assay is described as above.
T7 sequence (P12314 16-292 limits assumed): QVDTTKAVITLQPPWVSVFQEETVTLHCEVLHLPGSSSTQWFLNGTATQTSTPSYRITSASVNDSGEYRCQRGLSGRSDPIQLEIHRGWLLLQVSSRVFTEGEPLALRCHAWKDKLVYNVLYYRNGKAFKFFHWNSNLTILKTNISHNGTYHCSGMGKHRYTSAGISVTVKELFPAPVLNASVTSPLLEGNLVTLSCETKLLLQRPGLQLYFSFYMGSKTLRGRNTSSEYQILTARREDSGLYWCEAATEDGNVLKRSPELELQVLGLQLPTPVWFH
B1: the relative binding is 118 relative value (IL6R-BF648/IL6R-L = 100).
Regarding B2, the relative binding is 100 relative value (IL6R-BF648/IL6R-L = 100).
Consider B3, for which the relative binding is 140 relative value (IL6R-BF648/IL6R-L = 100).
On the same count and under the same terms, in the case of B4 it was 60 relative value (IL6R-BF648/IL6R-L = 100).

Another assay concerns the target T2, human FcγRIIb. The assay is described as above.
B1: the relative binding was 113 relative value (IL6R-BF648/IL6R-L = 100).
Same read-out and setting: in the case of B2 it was 100 relative value (IL6R-BF648/IL6R-L = 100); in that of B3, 62 relative value (IL6R-BF648/IL6R-L = 100).
The same measure, in the same setting: in the case of B4 it was 103 relative value (IL6R-BF648/IL6R-L = 100).

Another assay deals with T3, human FcγRIIa type R. Described as above.
On to B1, for which the relative binding is 155 relative value (IL6R-BF648/IL6R-L = 100).
The same measure, in the same setting: the figure for B2 is 100 relative value (IL6R-BF648/IL6R-L = 100).
On to B3, for which the relative binding is 650 relative value (IL6R-BF648/IL6R-L = 100).
With B4, the relative binding was 81 relative value (IL6R-BF648/IL6R-L = 100).

For the next assay, the target named is T4, human FcγRIIa type H. Briefly: SPR (Biacore); binding amount divided by that of control IL6R-BF648/IL6R-L, x100.
Method: (§1) According to the following method, relative binding activities were calculated for the results of analyzing interactions with the respective FcγRs.
Regarding B5, the relative binding activity was 123 % of IL6R-BF648/IL6R-L.
Regarding B6, the relative binding activity is 188 % of IL6R-BF648/IL6R-L.
As to B7, the relative binding activity is 116 % of IL6R-BF648/IL6R-L.
On to B8, for which the relative binding activity is 224 % of IL6R-BF648/IL6R-L.
The same measure, in the same setting: in the case of B9 it was 145 % of IL6R-BF648/IL6R-L.
In the case of B10, the relative binding activity is 195 % of IL6R-BF648/IL6R-L.
The same measure, in the same setting: the figure for B11 is 205 % of IL6R-BF648/IL6R-L; for B12 it is 395 % of IL6R-BF648/IL6R-L; for B13 it is 122 % of IL6R-BF648/IL6R-L.
On to B14, for which the relative binding activity is 183 % of IL6R-BF648/IL6R-L.
Regarding B15, the relative binding activity was 294 % of IL6R-BF648/IL6R-L.
Regarding B16, the relative binding activity is 344 % of IL6R-BF648/IL6R-L.

For a further assay, the target named is T8, human FcγRIIIa type V (human, UniProt P08637 17-208, limits assumed).
T8 construct: The assay used allotype V158; also called FcgRIIIaV; FcγRIIIa(V)
Described as above.
T8 sequence (P08637 other isoform, or with tags, fused parts or gaps limits assumed): as the sequence (P08637 other isoform, or with tags, fused parts or gaps limits assumed) above
Method: as §1
With B5, the relative binding activity was 100 % of IL6R-BF648/IL6R-L.
On the same count and under the same terms, the figure for B6 is 157 % of IL6R-BF648/IL6R-L; for B17 it is 87 % of IL6R-BF648/IL6R-L; for B7 it is 103 % of IL6R-BF648/IL6R-L.
Regarding B8, the relative binding activity is 155 % of IL6R-BF648/IL6R-L.
The same measure, in the same setting: the figure for B9 is 142 % of IL6R-BF648/IL6R-L; for B10 it is 137 % of IL6R-BF648/IL6R-L.
B11: the relative binding activity is 124 % of IL6R-BF648/IL6R-L.
The same measure, in the same setting: in the case of B12 it was 249 % of IL6R-BF648/IL6R-L; in that of B13, 118 % of IL6R-BF648/IL6R-L.
The same measure, in the same setting: the figure for B14 is 141 % of IL6R-BF648/IL6R-L; for B15 it is 206 % of IL6R-BF648/IL6R-L; for B16 it is 221 % of IL6R-BF648/IL6R-L.

The target in another assay is T9, human FcγRIa (human, UniProt P12314 16-292, limits assumed).
T9 construct: also called FcgRIa; CD64
The assay is described as above.
T9 sequence (P12314 16-292 limits assumed): as the sequence (P12314 16-292 limits assumed) above
Method: as §1
As for B5, the relative binding activity is 118 % of IL6R-BF648/IL6R-L.
As for B6, the relative binding activity is 104 % of IL6R-BF648/IL6R-L.
Still for that read-out and setting: in the case of B17 it was 128 % of IL6R-BF648/IL6R-L.
For the molecule B7, the relative binding activity was 112 % of IL6R-BF648/IL6R-L.
The same measure, in the same setting: the figure for B8 is 50 % of IL6R-BF648/IL6R-L; for B9 it is 125 % of IL6R-BF648/IL6R-L.
On to B10, for which the relative binding activity is 89 % of IL6R-BF648/IL6R-L.
As for B11, the relative binding activity is 68 % of IL6R-BF648/IL6R-L.
Same read-out and setting: in the case of B12 it was 69 % of IL6R-BF648/IL6R-L; in that of B13, 109 % of IL6R-BF648/IL6R-L.
On to B14, for which the relative binding activity is 56 % of IL6R-BF648/IL6R-L.
For the molecule B15, the relative binding activity was 71 % of IL6R-BF648/IL6R-L.
On the same count and under the same terms, in the case of B16 it was 68 % of IL6R-BF648/IL6R-L.

The next assay addresses T5, human FcγRIIb. Described as above.
Method: as §1
For B5, the relative binding activity is 169 % of IL6R-BF648/IL6R-L.
For the molecule B6, the relative binding activity is 164 % of IL6R-BF648/IL6R-L.
Regarding B17, the relative binding activity was 165 % of IL6R-BF648/IL6R-L.
In the case of B7, the relative binding activity is 144 % of IL6R-BF648/IL6R-L.
As to B10, the relative binding activity was 157 % of IL6R-BF648/IL6R-L.
The same measure, in the same setting: the figure for B11 is 157 % of IL6R-BF648/IL6R-L; for B12 it is 178 % of IL6R-BF648/IL6R-L.
The same measure, in the same setting: the figure for B13 is 172 % of IL6R-BF648/IL6R-L; for B14 it is 177 % of IL6R-BF648/IL6R-L.
Consider B15, for which the relative binding activity was 179 % of IL6R-BF648/IL6R-L.

Source of the values: patent publication US20140105889A1 (published 2014).
